Earlier results as cited in publication PMC9369280.

Experiments:
Assay in all cases: SPR
FGF-1 (Homo sapiens) = FGF-1 (Homo sapiens) (UniProt P05230)
FGF-2 (Homo sapiens) = FGF-2 (Homo sapiens) (UniProt P09038)
FGFR2 (Homo sapiens) = FGFR2 (Homo sapiens) (UniProt P21802)
Sequence of UniProt P21802 (P21802 22-377): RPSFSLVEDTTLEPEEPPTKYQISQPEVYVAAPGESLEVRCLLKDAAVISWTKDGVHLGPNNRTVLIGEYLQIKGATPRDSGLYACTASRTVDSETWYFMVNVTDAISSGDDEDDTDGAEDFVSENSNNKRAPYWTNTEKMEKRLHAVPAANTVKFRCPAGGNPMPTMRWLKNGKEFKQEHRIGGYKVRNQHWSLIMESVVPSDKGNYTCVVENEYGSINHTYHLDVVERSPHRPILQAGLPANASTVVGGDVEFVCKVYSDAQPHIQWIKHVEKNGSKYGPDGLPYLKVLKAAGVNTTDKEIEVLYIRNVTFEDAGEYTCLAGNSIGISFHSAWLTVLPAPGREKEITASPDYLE

Sequence of UniProt P09038 (P09038 143-288): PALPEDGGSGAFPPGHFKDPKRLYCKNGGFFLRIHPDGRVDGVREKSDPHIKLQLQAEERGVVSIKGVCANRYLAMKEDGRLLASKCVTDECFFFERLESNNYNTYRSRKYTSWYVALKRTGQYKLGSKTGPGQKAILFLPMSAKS
Sequence of UniProt P05230 (P05230 16-155): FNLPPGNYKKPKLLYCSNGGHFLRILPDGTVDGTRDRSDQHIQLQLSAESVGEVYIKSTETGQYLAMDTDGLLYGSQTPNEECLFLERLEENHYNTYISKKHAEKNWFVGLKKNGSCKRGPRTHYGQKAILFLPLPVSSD

Substance: CCN2 (from UniProt P29279)
- Kd (FGF-1 (Homo sapiens)): 3.98 nM
- Kd (FGF-2 (Homo sapiens)): 5.5 nM
- Kd (FGFR2 (Homo sapiens)): 7.91 nM
